Measured values as given in publication PMC3697849.

Biological target: trypsin-digested STING c-di-GMP binding domain (CBD) (human) (UniProt Q86WV6)
Assay: SEC

Substance “trypsin-digested STING c-di-GMP binding domain (CBD) (from UniProt Q86WV6 139-379) (domain or fragment)” has a stoichiometry N of 2.
